Assay results taken from the DeepSol protein solubility set.

Experiment: soluble on expression in E. coli; label from the status in PepcDB or PDB records

| Sequence | soluble on expression in E. coli |
| --- | --- |
| MGSDKIHHHHHHMTNVSGYHRPELHITAESGVLFAPAGVLLDDDTWHFFHQYRPSPDHGPRWAHQFAERTPFVWDICDDVLAPEGDETQVRAGSVVSNNGGVDLYFTSVVGPTSTIQLAHINNIRGTTELINEDELGLDPDVSRIGEVVGNTDGYVKFRSPCVIPGWEDQGNRDEGHSGWLMLAVTGPVEAPTVVVLDSPDGREWSITGPLSLNGLSGLESDEVLVAPRMIRLRDEVDHEIYDVLIVTIEQDGIDISGYLVGQLNGSEFDVKTPFTRIDFGHDFSRPRNTNYAETTIGYDFAHIFGLMNGVGRLDSPTEHLSWKEEGWANAISFPRIVTLQDGTVFQTPPEGLLDAIHESEAAAGWTGLCEIPSNSAVEVALKDQEGEIAATITHRHNQLVVDRSMNPNHAGDPHAIAPLTDDETDSLFIVVDGSTVEVFADGGYVSMASRVYFNNGPFSEFEVTTTGDASIIRQESHFPVDFSSVSLDIDDLTALMQFDENEPHEGPVR | not soluble |
| MSLTPGRFLGWENADTASRTASDAIAVMDRRTWQALTTGHVELPCRRIHAGLWFRLLRTLLDELNTPLSACGTYAGYLRQVWQGCGHPLRAGQSLWRPYETLNPAIRLQMLEAAATAISLIEVRDISPPGEHAKLFWSELQTGFTSGLPAKPPKPEPVNHWQRAVQAISEAIIEARHDPETARSLFAMASYGRRDPASLEQLRATFAKEGIPPEFLSHYEADGPFACLRQNDGLSDKEGHHHHHH | not soluble |
| MIEGIIEEIRTNGSFLITTHENPDGDAVGSSLALAGYLRRLGKDVTIHFCDPVPDLYAFLPLAEEVTRTVPDRDYDICFVLDVGEFRRAGKQIAECKRIKKFINIDHHLTSDNFGFINYIDPKAAATGILVHRIITGAGDVVGYETALCLYTAIITDTGSFRYSNANPEAFAIAGELVSTGINTWSIAEKLYESQPRERLELLALALSTLTISPRGEYASITVTLDMYNKTGASAELTDGFVNYPRSIRGVEVSVFFREINPGLFKVGFRSKGKIDVSRIAAAFGGGGHHNAAGATMNGSLEGIKATLFSHLESTLLEHHHHHH | not soluble |
| MDLSEDQIRGLPHHELLGHFLQMREEFNEFQTSSAEIEKMMDSELDDLKTQLKKAETRVQQMTTEQIRNKDRQDDSRVQFAQVEEQLRRENSHLHEQCESQRERIRKLEQRNDVLETSERNKEYLASDLGSKLDHAIEKIAMLESELYERQVAAEEMHRLREEQLRTTERPRLIVEPLRNDPEILPDEPSPGPSKEEFKMSSEDVFMEDVQHHEDVRMEETIAKIDEVRIDDNKNIQEKSQRVSTGTGAGACINRIVKDLMTKVERLDSILSTIRVSNNSSNNNSSHLTTTRA | not soluble |
| SEQKYEEDIQKLQQEIEMLEAEQEETLRSIFVQHGDRLQQGVKSACEERGGGGAQQHTLSKLITEVRELEKDLRRQTEINGITLNECFVKTLHKSERKLIQQLRLAGHCGLLLFQVEFAVTEIQEDNVLHRRVTELNIVVDGVEFKDFSAFVSRVEDTKDLLLFFRTLRTFSERCEDRRQTFQHFQEKYPDVVNLPEGCRSEIMIIRSPQLPGISMTLFWKIHVSKEGVVKPLLDLLLKMPDQALELDTKKVMEKASDYFQSLLQLLGVEASIEGLIRTVCS | soluble |
| MSIQNISFLGAGSIAEAIIGGLLHANVVKGEQITVSNRSNETRLQELHKKYGVKGTHNKKELLTDANILFLAMKPKDVAEALTPFKEYINNNVLIISLLAGVSTDSIRKLLQKDVPIIRAMPNTSAAILKSATAISPSKHATAEHIRTATSLFETIGLVSVVEEEDMHAVTALSGSGPAYIYYVVEAMEEAAKKIGLKEDVAKSLILQTMIGAAEMLKASDKHPSILRKEITSPGGTTEAGIEVLQEHKFQQALISCITQATKRSHNLGKTLEQLTKEKLEHHHHHH | soluble |
| MGSDKIHHHHHHSDDDDEKMVNPVPQTTFTGENGLQLTYNGAPMPGKKVTFTPDATNAQKATLRLEGEFDLNGILGKAKSAAAREDVSMPTAPGVLPGSPVVTLPVDLTINGDQCSFAGTSETDYCTFSYKGEVSAGAMELALSEVKLKNAKLAGMTWKLKPYNQEVEEQDPVRLVWESEKGIPLFGSFEMPVESVLKIALRMPLIAVGAENKVSATDMLGTVLKDVTFMEDGNIVATYKDAANGGTEWTKSPVNLAQYVVENDNQIKVFLNPAAIIAAVNNAGRAIDVQTVIQQAIQILYPMLVNGVPVAFEQTEDALSVYLNTELLLPLLKTLVVPLLSDEEVVAMLVELMKKDPDFGEMAGLAEPMLKAFPEIIESTTKVEIGLNFVK | not soluble |
| MKDIIIASFYKFIPLNDFESLREPILTKMHEIGIKGTIILAHEGVNGGFAGNREQMNVFYDYLRSDSRFADLHFKETYDNKNPFDKAKVKLRKEIVTMGVQKVDPSYNAGTYLSPEEWHQFIQDPNVILLDTRNDYEYELGTFKNAINPDIENFREFPDYVQRNLIDKKDKKIAMFCTGGIRCEKTTAYMKELGFEHVYQLHDGILNYLESIPESESLWEGKCFVFDDRVAVDQKLDRVYPQLPQDYKYEREQK | not soluble |
| MSLRDYRYSDAHVHYVDFFQESEGMPRLLEAMDKGRVDHVMLSGVAVAKKWHKDEPKRPRYYAGDDAGAYWYSATDVIVAAAVKSLPAEQRRRVHPFLTGFNPTDKNADAHIRRMLELDPGLWQGIGEIFTRHDDLTALTYGDVPRANNEALARVYHLAAEFDLPVLLHANVTSKRERNPLYLAEIEEPLRNHPHVRFIWAHAGTSMEIHRHQKKLDFLLPTLRRLLQRYPNLYIDLSWSVLRPYLLDEQGKPDPQWLALVERFPQRFMLGSDVVGQFDSLPELMASFDPFLDALPEQVARQVARDNFLAVLPREGHHHHHH | soluble |
| KRKERLSARLGDILSQLYLSSATLKRFEQDGRPAEDLALVHWGLQDSLKQAEIAIDEFLANFPNKVIGRTLRVLIMPFGRVRKAPSDKLDSKVARILQTPSATRSRIGRGQYLEPTEHNPAGKIELALSVILQAEPVFDKVCKAQGKRRPFLRLDMIAQEGLEQGVITQEEAELLREAEQHRLDTINVDDFEPELLAAKPLYPQMDSVA | not soluble |
| MSLQKFSDEQRSQIETIIKEYLVSHPEVLEEASEELGKRQAAAQAEKHQQAIKDNADIIYNSPRGVTVGNKNGDVTMVEFFDYNCGYCKRAMTDMMELMKDDPNLKVVLKEFPVLGPPSVEAAQVAIAVRMQDPTGKKYLDFHQKLLGGRGQADKARALAAAKDAGLDPAKIEKDMNSPEVRATIEESFKLAESMGMNGTPSYVIGKQVVVGAVGLDTLRQKINTARCGKDKCEGHHHHHH | soluble |
| MSKIETPVMTSLQTTAEKMMKDLNVPGAAVAVIKDGEVIISEGFGYRNIETKEAVTPNTRFAIGSSTKAFGTLSLSLLAQQKKFNWDTPIQSYIPNFTLSELLASSQVTGRDLASHRTGVSRHEALWYSSSLSRKDLVEKIKHLPLDAPFRTAFLYNNLMYATISYIVENITNQTWEQYTTEHILEPLNMRHTNFSVNDSQTTDDYALPYIENDGEIKAVPFRNIDTVGAAGCINSTIEDMANWVLLHLNEGKFGDHELISSELLQQMYTPHNSIPDQPVLSLPESPLNSYGLGWFISAYRGKKVIHHGGNIDGFSALVSFIPTENIGLVILTNAGGTLLPTYLANQIYDELLELESIDWHKRAVEDTKKMKEMMKEATESLPEQIKGTTPSHKLEDYTGTFEHPAYGTLQVYKRDDSLYVQFMEMDIQLGHHHYDIFSAKVDLFQMKMSLLFAYEMNVSGEFPSLQLHVPATLSTQPLTFKKIK | not soluble |
| MGSDKIHHHHHHMHSSEIRYFLVVATTGSLSAASQHLFVAVSAISRQIQRLEERIGVPLFERHARGMVLNDAGRILENHVRKSMMDMDAAVAEIQGLKASRRALLRIGCTEGMAFDLLPTLFARFRQHDPDTTFALKVDSAMQVSQMIRNGEVDIALQFALAPEQGVNVELALPAPLMLLMSDEHPLAQQSIQLADLHPFPLALPESSTTLRQLFDLSCRMNGTFLEPTLCCNNFTTLYYYAMSTPGAVTACSFYSVMYKCLQEPMRLKPLNIKQLDQRSLQIQTLAGKAHAPQQQAFLDFMMAELRQGEAYYLSHMATDMV | not soluble |
| MRSATDLLDELNAVDESARIEAKRASDMGKSVMETVIAFANEPGLDGGYLLLGVDWAINDKGDTVYRPVGLPDPDKVQRDLASQCASMLNVALRPEMQLEQVGGKTLLVVYVPEADVTHKPIYKKATGLPGGAYRRIGSSDQRCVDEDLWVLRGESQPLHGPDSSILSDARADDFDPTAIAAYRRERARINPQAEELDYGDEDMLEALGALRRVDGVLQPTLAGIVLFGKPLALRRLLPMVRIDYIRVPGNEWVEDPENRFQSIDIRKPLMLALPLAEASIIDELPKGFRLPEGQLQSVQEPILPRKVIREALANAAMHRNYTLHSPTQIIRYSNRIEIRNVGYSLKEPAQLGLPGSRLRNPAIAAVLHDLHLAEAKGTGIRAMRRLAADAGLPLPEFHSDRQANEFKLTLFLHNLLTEEDHTWLRNYAGSTLGPDEAKVLIYVRATGAVDNTACRDFCGSDTLAASMVLRRLRDRGLLEKRGAGSRTYYTLAGNEPRPTLESAQSELPLDVPADTPPVGQPQPAEAVAGQQACNPQLATLPPELATLLATLQGRISSEALRDGIRRLCQWAPQSGDQLATLLGKDRDYLRNKHLIPMVRDGQLRFRYPESAKHPHQAYVAPEDKRNDLEHHHHHH | soluble |
| QKFIARNRAPRVQIEYDVELYGAEKKVQLPFVMGVMADLAGKPAEPQAAVADRKFLEIDVDNFDARLKAMKPRVAFNVPNVLTGEGNLSLDITFESMDDFSPAAVARKVDSLNKLLEARTQLANLLTYMDGKTGAEEMIMKAIKDPALLQALASAPKPK | not soluble |
| MGSDKIHHHHHHMKLPRFGVEEWLNVHENSAIYDIAGVSISSLTLEELFALSGTNPEDFYKKLQGTKLNYGWIEGSPAFKKSVSQLYTGVKPEQILQTNGATGANLLVLYSLIEPGDHVISLYPTYQQLYDIPKSLGAEVDLWQIEEENGWLPDLEKLRQLIRPTTKMICINNANNPTGAVMDRTYLEELVEIASEVGAYILSDEVYRSFSELDVPSIIEVYDKGIAVNSLSKTYSLPGIRIGWVAANHQVTDILRDYRDYTMICAGVFDDLVAQLALAHYQEILERNRHILEENLAILDQWIEEEPLVSYIRPAVVSTSFVKIAVDMPMEDFCLQLLQEHGVLLVPGNRFERDGYVRLGFACEQETLIKGLEKLSQFLRRFDKEN | not soluble |
| MGSDKIHHHHHHMPNNALLQIKQDTLSLIDDLKVICTSFGLGNDGNEYKIITQCFLYKFLCDKFEFLFEQEFPNQTIQDYKDFNKEEKEEFFITLTDKRLPKLAYDDLLNYLFEKHFNDNDLHLKLDIIFNRISSNNAELFNTTSTDKTTIALFESISQYINEESKRANFTRVLLDKLKKFNFKQAFLNLQNQQGYDFFAPIFEYLLKDYNNAGGGKYAEYYTPLSIASIIAKLLINEPTRNVKIYDPSAGTGTLLMALAHQIGTDSCTLYAQDISQKSLRMLKLNLILNDLTHSLRNAIEGNTLTNPYHSKDFKGKMDYIVSNPPFKLDFSNEHAEISQNKNDFFLGVPNIPKNNKSKMPIYTLFFQHCLNMLSNKGKGAIIVPTGFISAKSGVENKIIRHLVDERLVYGVVCMPSQVFANTGTNVSIIFFQKTPSAKEVVLIDASKLGEEYTENKNKKTRLRPSDIDLILETFQNKTKKSDFCALVSFDEITEKIIL | not soluble |
| AIAGELTDALLGKGALKTRFGSLLGQGDWGGVRVSQVEVRWVIFCLLHWLHVNLPVTEYLALDVLFPLAIVQKHSIL | soluble |
